This sample holds only a part of the variants without activity.
B1: TPR 5TU (parent)
chain: GGAUCUUCUCGAUCUAACAAAAAAGACAAAUCUGCCACAAAGCUUGAGAGCAUCUUCGGAUGCAGAGGCGGCAGCCUUCGGUGGCGCGAUAGCGCCAACGUUCUCAACUAUGACACGCAAAACGCGUGCUCCGUUGAAUGGAGUUUAUCAUG

Variants of: B1
Test: polymerase ribozyme fitness, log enrichment relative to wild type (log ratio); higher = more active; in vitro selection for triplet polymerase activity
Summary of the method: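 Fitness measures genotype enrichment against wild-type enrichment on a logarithmic scale, with inverse-variance-weighted averaging of replicates. The logarithm is base 2, and genotypes were kept only with ≥10 input reads and ≥1 read per output in Illumina sequencing. The sequenced libraries came from one triplicate in vitro selection round, including frozen incubation at −7 °C, of PCR-built, transcribed mutant libraries of each subunit of a heterodimeric triplet polymerase ribozyme.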

Going from G83U G112U to G83C C96U A147U G152A, the “polymerase ribozyme fitness (log ratio)” value rises from -4 to -1.98.

Compared with G83U C103G A107U, C85A C149U is higher in “polymerase ribozyme fitness (log ratio)” value: ≤ -4.2 for the first, -1.59 for the second.

Compared with G84C C85G, G84A C96G is higher in “polymerase ribozyme fitness (log ratio)” value: -4.03 for the first, -0.627 for the second.

G84U C99G C103U and G83A U90G G94C A110G G152U cannot be ordered by “polymerase ribozyme fitness (log ratio)” value: ≤ -4.2 for the first, ≤ -4.2 for the second.

G84A A122G G140A G141A and G83C G84U A110C cannot be ordered by “polymerase ribozyme fitness (log ratio)” value: ≤ -4.2 for the first, ≤ -4.2 for the second.

Compared with G84A C85U G143A, G84U A98G is lower in “polymerase ribozyme fitness (log ratio)” value: -1.63 for the first, -2.89 for the second.

Going from G84A U135A to C85A C103G A147U, the “polymerase ribozyme fitness (log ratio)” value falls from -1.69 to -2.48.

First: G83A G141U G143A
Second: G84C A115C C116U
The “polymerase ribozyme fitness (log ratio)” value of the first is lower: ≤ -4.2 for the first, -3.98 for the second.

First: G84U G133C
Second: G83C C93G
The “polymerase ribozyme fitness (log ratio)” value of the first is higher: -3.53 for the first, ≤ -4.2 for the second.

Compared with G83C C93U, G84A G136A U148C is higher in “polymerase ribozyme fitness (log ratio)” value: -2.49 for the first, -1.66 for the second.

Going from G84U G117U C123U G141A U146A to G84U G86A C93U C123U, the “polymerase ribozyme fitness (log ratio)” value rises from ≤ -4.2 to -1.15.

Going from G83C A106G to U82G G141U, the “polymerase ribozyme fitness (log ratio)” value rises from -0.352 to 1.45.

Going from G83C G136C U146G to G84U U127A U134G, the “polymerase ribozyme fitness (log ratio)” value falls from -3.41 to ≤ -4.2.

First: G84A C118U G141A
Second: G83U C99G U145G
The “polymerase ribozyme fitness (log ratio)” value of the first is higher: 0.213 for the first, ≤ -4.2 for the second.

Compared with G84A C123G, G84A C123U is higher in “polymerase ribozyme fitness (log ratio)” value: -0.679 for the first, -0.156 for the second.

Compared with C85A G88U C95G A97C, C85A C99G is higher in “polymerase ribozyme fitness (log ratio)” value: ≤ -4.2 for the first, -3.49 for the second.

Going from C85A C99A to G83U A150G, the “polymerase ribozyme fitness (log ratio)” value falls from -2.8 to -3.14.

Compared with G84U G100A A106U A137C, U82G C87U G92U A98G is higher in “polymerase ribozyme fitness (log ratio)” value: ≤ -4.2 for the first, -2.69 for the second.

Compared with G84A C95A, G84A C95G is lower in “polymerase ribozyme fitness (log ratio)” value: -0.531 for the first, -0.784 for the second.

First: G83C C85G A122U
Second: G84U A89G
The “polymerase ribozyme fitness (log ratio)” value of the first is lower: ≤ -4.2 for the first, -3.82 for the second.

First: G83C U101G A106U
Second: G84A C131G
The “polymerase ribozyme fitness (log ratio)” value of the first is lower: -3.95 for the first, -3.02 for the second.

First: G84A C131A
Second: G83A A142G U148A
The “polymerase ribozyme fitness (log ratio)” value of the first is higher: -2.79 for the first, -4.11 for the second.

Compared with G83C C116A U146G, G83A U101C is higher in “polymerase ribozyme fitness (log ratio)” value: -3.27 for the first, -2.23 for the second.

First: G84C A121U A122C
Second: U82G C96U
The “polymerase ribozyme fitness (log ratio)” value of the first is higher: -1.63 for the first, -2.13 for the second.

First: U82G C96A
Second: G83A G86U C118U
The “polymerase ribozyme fitness (log ratio)” value of the first is higher: 0.287 for the first, -3.81 for the second.

First: G84A A147C
Second: G83A A115C A122U U134A
The “polymerase ribozyme fitness (log ratio)” value of the first is higher: -0.0528 for the first, -3.03 for the second.

Going from G84U C96A C103U A113U to G83A C96U C118U, the “polymerase ribozyme fitness (log ratio)” value rises from ≤ -4.2 to -0.697.

Compared with G84U U90A C108A, G83U G143U is higher in “polymerase ribozyme fitness (log ratio)” value: ≤ -4.2 for the first, -1.68 for the second.

Going from C85A C87U A119U to U82G G86A C96A, the “polymerase ribozyme fitness (log ratio)” value rises from ≤ -4.2 to -2.04.

First: U82G C85U A107U
Second: U82G G94U
The “polymerase ribozyme fitness (log ratio)” value of the first is lower: -3.59 for the first, -0.833 for the second.

Going from U82G C93A to G84C C125G, the “polymerase ribozyme fitness (log ratio)” value rises from -2.46 to -1.94.

First: U82G C95A A110U A138U
Second: G84A U144G
The “polymerase ribozyme fitness (log ratio)” value of the first is lower: ≤ -4.2 for the first, 0.394 for the second.

G84A U144A and G83C G117U are within 0.2 log units of each other in “polymerase ribozyme fitness (log ratio)” value: -1.65 for the first, -1.62 for the second.

Going from C85A A91G to C85A A107U A147C U151C, the “polymerase ribozyme fitness (log ratio)” value falls from -3.36 to ≤ -4.2.

Compared with G84U A142G, G84U A97U is higher in “polymerase ribozyme fitness (log ratio)” value: -3.27 for the first, -1.54 for the second.

First: G84U C93G
Second: U82G C99G
The “polymerase ribozyme fitness (log ratio)” value of the first is lower: ≤ -4.2 for the first, -0.787 for the second.

Compared with G84U C95U, C85A C96U C132A is lower in “polymerase ribozyme fitness (log ratio)” value: -1.23 for the first, -3.67 for the second.

Going from G83A C93U to G84U C87G G88C G143C, the “polymerase ribozyme fitness (log ratio)” value falls from -1.36 to ≤ -4.2.

Compared with U82G G84U C99U G128C, G83A U104G A122U U134G is higher in “polymerase ribozyme fitness (log ratio)” value: ≤ -4.2 for the first, -3.23 for the second.

Compared with C85A A106G, G83C U109A A115C G140C is lower in “polymerase ribozyme fitness (log ratio)” value: -2.01 for the first, ≤ -4.2 for the second.

First: G84U U102C C149G
Second: G84A A97G C129A G152A
The “polymerase ribozyme fitness (log ratio)” value of the first is lower: ≤ -4.2 for the first, -4 for the second.

In the case of G84U A120G, the “polymerase ribozyme fitness (log ratio)” value is reported as -2.16.

— the RNAGym collection of RNA variant scans (doi:10.1073/pnas.2313332121)
